Test results taken from patent US20200317768A1 (published 2020).

Columns and labels:
Assay in all cases: SPR (Biacore), antibody captured, FcgR analyte, 25 C
[1] = molecular target: T1, human FcγRIIaH extracellular domain, C-terminal His-tag (human, UniProt P12318 34-217)
T1 construct: also called human FcγRIIa (type H); FcgRIIaH; not shown: His-tag added to C-terminus
T1 sequence: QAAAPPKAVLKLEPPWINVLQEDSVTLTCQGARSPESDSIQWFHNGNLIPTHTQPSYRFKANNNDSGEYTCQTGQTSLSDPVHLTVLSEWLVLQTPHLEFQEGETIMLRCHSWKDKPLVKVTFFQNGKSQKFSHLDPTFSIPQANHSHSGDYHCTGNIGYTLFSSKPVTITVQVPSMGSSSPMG
Description: (§1) The kinetic analysis of interactions between these antibodies and FcγR was carried out using BIACORE® T200 or BIACORE® 4000 (GE Healthcare). HBS-EP+ (GE Healthcare) was used as the running buffer, and the measurement temperature was set to 25° C. A chip produced by immobilizing Protein A. Protein A/G or mouse anti-human IgG kappa light chain (BD Biosciences) onto a Series S Sensor Chip CM4 or CM5 (GE Healthcare) by the amine-coupling method was used. […] After the measurement, the antibody captured on the chip was washed off by allowing reaction with 10 mM glycine-HCl, pH1.5 and 25 mM NaOH so that the chip was regenerated and used repeatedly. The sensorgrams obtained as measurement results were analyzed by the 1:1 Langmuir binding model using the BIACORE® Evaluation Software to calculate the binding rate constant ka (L/mol/s) and dissociation rate constant kd (l/s), and the dissociation constant KD (mol/L) was calculated from these values. […] Regarding such interactions, KD values were calculated using the following 1:1 binding model described in BIACORE® T100 Software Handbook BR1006-48 Edition AE.
(§2) The behavior of interacting molecules according to the 1:1 binding model on BIACORE® can be described by Equation 1: Req=C·R max/(KD+C)+RI, wherein, Req is a plot of steady-state binding levels to analyte concentration. C is concentration, RI is bulk refractive index contribution in the sample, and Rmax is analyte binding capacity of the surface. When this equation is rearranged, KD can be expressed as Equation 2: KD=C·Rmax/(Req−RI)−C. KD can be calculated by substituting the values of Rmax, RI, and C into Equation 1 or Equation 2. From the current measurement conditions, RI=0, C=2 μmol/L can be used.

[2] = molecular target: T2, human FcγRIIb extracellular domain, C-terminal His-tag (human, UniProt P31994 43-217)
T2 construct: also called FcgRIIb (human); not shown: His-tag added to C-terminus
T2 sequence: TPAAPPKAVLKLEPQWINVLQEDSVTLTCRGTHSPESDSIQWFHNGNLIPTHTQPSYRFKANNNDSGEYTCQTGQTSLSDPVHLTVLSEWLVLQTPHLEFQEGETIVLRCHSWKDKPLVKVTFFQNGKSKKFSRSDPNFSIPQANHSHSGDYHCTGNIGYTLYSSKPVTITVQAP
Description: as §1, §2

[3] = molecular target: T3, cynomolgus monkey FcγRIIIaS extracellular domain, C-terminal His-tag (cynomolgus monkey, UniProt A3RFZ7 21-206 (rhesus entry))
T3 construct: also called cyno FcγRIIIaS; cynoFcγRIIIaS; not shown: His-tag added to C-terminus
T3 sequence (A3RFZ7 21-206): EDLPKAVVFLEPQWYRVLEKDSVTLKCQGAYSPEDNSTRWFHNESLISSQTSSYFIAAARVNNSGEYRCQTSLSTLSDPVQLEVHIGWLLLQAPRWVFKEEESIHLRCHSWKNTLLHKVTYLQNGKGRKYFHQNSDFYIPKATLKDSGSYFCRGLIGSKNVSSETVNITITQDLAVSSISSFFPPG
Description: as §1, §2

[4] = molecular target: T4, cynomolgus monkey FcγRIIa3 extracellular domain, C-terminal His-tag (cynomolgus monkey)
T4 construct: also called cyno FcγRIIa3; cynoFcgRIIa3; not shown: His-tag added to C-terminus
T4 chain: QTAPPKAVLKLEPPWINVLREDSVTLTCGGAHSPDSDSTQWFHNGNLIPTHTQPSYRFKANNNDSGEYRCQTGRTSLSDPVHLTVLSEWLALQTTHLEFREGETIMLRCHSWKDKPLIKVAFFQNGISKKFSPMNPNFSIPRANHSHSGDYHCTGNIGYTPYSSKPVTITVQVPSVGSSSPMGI
Description: as §1, §2

[5] = molecular target: T5, cynomolgus monkey FcγRIIa1 extracellular domain, C-terminal His-tag (cynomolgus monkey)
T5 construct: also called cyno FcγRIIa1; cynoFcgRIIa1; not shown: His-tag added to C-terminus
T5 chain: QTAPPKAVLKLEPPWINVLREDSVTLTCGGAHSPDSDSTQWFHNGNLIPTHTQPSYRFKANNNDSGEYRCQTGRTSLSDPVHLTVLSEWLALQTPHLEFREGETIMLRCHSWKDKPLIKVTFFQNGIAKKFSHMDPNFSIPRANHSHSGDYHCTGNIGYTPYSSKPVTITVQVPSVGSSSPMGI
Description: as §1, §2

[6] = molecular target: T6, cynomolgus monkey FcγRIIb extracellular domain, C-terminal His-tag (cynomolgus monkey)
T6 construct: also called cyno FcγRIIb; cynoFcγRIIb; not shown: His-tag added to C-terminus
T6 chain: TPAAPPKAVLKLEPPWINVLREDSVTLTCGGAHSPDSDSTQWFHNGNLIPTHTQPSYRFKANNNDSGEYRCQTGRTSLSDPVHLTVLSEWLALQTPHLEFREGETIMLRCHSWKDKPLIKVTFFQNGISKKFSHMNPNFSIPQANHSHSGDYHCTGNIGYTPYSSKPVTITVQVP
Description: as §1, §2

[7] = molecular target: T7, human FcγRIIIaV extracellular domain, C-terminal His-tag (human, UniProt P08637 17-208)
T7 construct: also called FcgRIIIaV; not shown: His-tag added to C-terminus
T7 sequence (P08637 17-208 F176V): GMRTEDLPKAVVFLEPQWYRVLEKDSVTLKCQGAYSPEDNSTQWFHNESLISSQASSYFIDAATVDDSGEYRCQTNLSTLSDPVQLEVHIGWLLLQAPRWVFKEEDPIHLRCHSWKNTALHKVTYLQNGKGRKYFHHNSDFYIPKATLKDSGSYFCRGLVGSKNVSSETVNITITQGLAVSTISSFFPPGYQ
Description: as §1, §2

[8] = molecular target: T8, human FcγRIIaR extracellular domain, C-terminal His-tag (human, UniProt P12318 34-217)
T8 construct: also called human FcγRIIa (type R); FcgRIIaR; not shown: His-tag added to C-terminus
T8 chain: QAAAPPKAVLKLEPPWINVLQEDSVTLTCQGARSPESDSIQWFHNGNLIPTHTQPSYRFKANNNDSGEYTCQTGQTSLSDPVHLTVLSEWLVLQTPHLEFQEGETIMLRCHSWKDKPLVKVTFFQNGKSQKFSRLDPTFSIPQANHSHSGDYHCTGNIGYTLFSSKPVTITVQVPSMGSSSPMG
Description: as §1, §2

[9] = molecular target: T9, cynomolgus monkey FcγRIIa2 extracellular domain, C-terminal His-tag (cynomolgus monkey)
T9 construct: also called cyno FcγRIIa2; cynoFcgRIIa2; not shown: His-tag added to C-terminus
T9 chain: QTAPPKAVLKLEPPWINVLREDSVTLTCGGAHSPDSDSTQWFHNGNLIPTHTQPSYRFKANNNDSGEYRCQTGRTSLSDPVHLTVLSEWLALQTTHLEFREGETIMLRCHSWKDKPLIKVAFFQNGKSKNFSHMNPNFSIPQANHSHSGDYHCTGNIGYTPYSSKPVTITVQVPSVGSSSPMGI
Description: as §1, §2

Row | Binder | Kd [1] | Kd [2] | Kd [3] | Kd [4] | Kd [5] | Kd [6] | Kd [7] | Kd [8] | Kd [9]
1 | M103205H795-MY325/M103202L889-SK1 (antibody, human IgG1, kappa) heavy: QVTLKESGPVLVKPTETLTLTCTVSGIDLSHDDISWVRQAPGKGLEWVGIISYAGSTYYASWAKGRLTISKDTSKNQVVLTMTNMDPVDTATYYCARGVPAYSHGGDLWGQGTLVTVSSASTKGPSVFPLAPSSKSTSGGTAALGCLVKDYFPEPVTVSWNSGALTSGVHTFPAVLQSSGLYSLSSVVTVPSSSLGTQTYICNVNHKPSNTKVDKKVEPKSCDKTHTCPPCPAPELLDGPSVFLFPPKPKDTLMISRTPEVTCVVVDVSDEDPEVKFNWYVDGVEVHNAKTKPREEQYNSTYRVVSVLTVLHQDWLNGKEYKCKVSNKALPKPIEKTISKAKGQPREPQVYTLPPSREEMTKNQVSLTCLVKGFYPSDIAVEWESNGQPENNYKTTPPVLDSDGSFFLYSKLTVDKSRWQQGNVFSCSVMHEALHNHYTQKSLSLSP light: DIVMTQSPATLSLSPGERATLSCTSSQSVYHANWLSWFQQKPGQPPKLLIYWASTLAYGVPSRFSGSGSGTDFTLTISSLQPEDAATYYCAGGYGGGRYAFGQGTKVEIKRTVAAPSVFIFPPSDEQLKSGTASVVCLLNNFYPREAKVQWKVDNALQSGNSQESVTEQDSKDSTYSLSSTLTLSKADYEKHKVYACEVTHQGLSSPVTKSFNRGEC | 510 nM | 260 nM | 4000 nM | 5800 nM | 4000 nM | 950 nM | 8100 nM | 300 nM | 4400 nM
2 | M103205H795-MY329/M103202L889-SK1 (antibody, human IgG1, kappa) heavy: QVTLKESGPVLVKPTETLTLTCTVSGIDLSHDDISWVRQAPGKGLEWVGIISYAGSTYYASWAKGRLTISKDTSKNQVVLTMTNMDPVDTATYYCARGVPAYSHGGDLWGQGTLVTVSSASTKGPSVFPLAPSSKSTSGGTAALGCLVKDYFPEPVTVSWNSGALTSGVHTFPAVLQSSGLYSLSSVVTVPSSSLGTQTYICNVNHKPSNTKVDKKVEPKSCDKTHTCPPCPAPELLDGPSVFLFPPKPKDTLMISRTPEVTCVVVDVSDEDPEVKFNWYVDGVEVHNAKTKPREELYNSTYRVVSVLTVLHQDWLNGKEYKCKVSNKALPKPIEKTISKAKGQPREPQVYTLPPSREEMTKNQVSLTCLVKGFYPSDIAVEWESNGQPENNYKTTPPVLDSDGSFFLYSKLTVDKSRWQQGNVFSCSVMHEALHNHYTQKSLSLSP light: DIVMTQSPATLSLSPGERATLSCTSSQSVYHANWLSWFQQKPGQPPKLLIYWASTLAYGVPSRFSGSGSGTDFTLTISSLQPEDAATYYCAGGYGGGRYAFGQGTKVEIKRTVAAPSVFIFPPSDEQLKSGTASVVCLLNNFYPREAKVQWKVDNALQSGNSQESVTEQDSKDSTYSLSSTLTLSKADYEKHKVYACEVTHQGLSSPVTKSFNRGEC | 270 nM | 160 nM | 2300 nM | 3700 nM | 1900 nM | 590 nM | 6400 nM | 210 nM | 3200 nM
3 | M103205H795-MY327/M103202L889-SK1 (antibody, human IgG1, kappa) heavy: QVTLKESGPVLVKPTETLTLTCTVSGIDLSHDDISWVRQAPGKGLEWVGIISYAGSTYYASWAKGRLTISKDTSKNQVVLTMTNMDPVDTATYYCARGVPAYSHGGDLWGQGTLVTVSSASTKGPSVFPLAPSSKSTSGGTAALGCLVKDYFPEPVTVSWNSGALTSGVHTFPAVLQSSGLYSLSSVVTVPSSSLGTQTYICNVNHKPSNTKVDKKVEPKSCDKTHTCPPCPAPELLDGPSVFLFPPKPKDTLMISRTPEVTCVVVDVSEEDPEVKFNWYVDGVEVHNAKTKPREELYNSTYRVVSVLTVLHQDWLNGKEYKCKVSNKALPKPIEKTISKAKGQPREPQVYTLPPSREEMTKNQVSLTCLVKGFYPSDIAVEWESNGQPENNYKTTPPVLDSDGSFFLYSKLTVDKSRWQQGNVFSCSVMHEALHNHYTQKSLSLSP light: DIVMTQSPATLSLSPGERATLSCTSSQSVYHANWLSWFQQKPGQPPKLLIYWASTLAYGVPSRFSGSGSGTDFTLTISSLQPEDAATYYCAGGYGGGRYAFGQGTKVEIKRTVAAPSVFIFPPSDEQLKSGTASVVCLLNNFYPREAKVQWKVDNALQSGNSQESVTEQDSKDSTYSLSSTLTLSKADYEKHKVYACEVTHQGLSSPVTKSFNRGEC | 350 nM | 170 nM | 4300 nM | 5300 nM | 3400 nM | 1000 nM | 9900 nM | 200 nM | 4800 nM
